Results on eleven variants are retold here after IntAct's records for PubMed 31515488.

The labels stand for the following.
B1: Kelch-like protein 40 (Homo sapiens), Q2TBA0 (parent)
chain: MALGLEQAEEQRLYQQTLLQDGLKDMLDHGKFLDCVVRAGEREFPCHRLVLAACSPYFRARFLAEPERAGELHLEEVSPDVVAQVLHYLYTSEIALDEASVQDLFAAAHRFQIPSIFTICVSFLQKRLCLSNCLAVFRLGLLLDCARLAVAARDFICAHFTLVARDADFLGLSADELIAIISSDGLNVEKEEAVFEAVMRWAGSGDAEAQAERQRALPTVFESVRCRLLPRAFLESRVERHPLVRAQPELLRKVQMVKDAHEGRITTLRKKKKGKDGAGAKEADKGTSKAKAEEDEEAERILPGILNDTLRFGMFLQDLIFMISEEGAVAYDPAANECYCASLSNQVPKNHVSLVTKENQVFVAGGLFYNEDNKEDPMSAYFLQFDHLDSEWLGMPPLPSPRCLFGLGEALNSIYVVGGREIKDGERCLDSVMCYDRLSFKWGESDPLPYVVYGHTVLSHMDLVYVIGGKGSDRKCLNKMCVYDPKKFEWKELAPMQTARSLFGATVHDGRIIVAAGVTDTGLTSSAEVYSITDNKWAPFEAFPQERSSLSLVSLVGTLYAIGGFATLETESGELVPTELNDIWRYNEEEKKWEGVLREIAYAAGATFLPVRLNVLCLTKM
B2: Microtubule-associated tumor suppressor candidate 2 (Homo sapiens), Q5JR59-3 (parent)
chain: MGHCCCKPYNCLQCLDKTNESALVKEKELSIELANIRDEVAFHTAKCEKLQKEKEELERRFEDEVKRLGWQQQAELQELEERLQLQFEAEMARLQEEHGDQLLSIRCQHQEQVEDLTASHDAALLEMENNHTVAITILQDDHDHKVQELMSTHELEKKELEENFEKLRLSLQDQVDTLTFQSQSLRDRARRFEEALRKNTEEQLEIALAPYQHLEEDMKSLKQVLEMKNQQIHEQEKKILELEKLAEKNIILEEKIQVLQQQNEDLKARIDQNTVVTRQLSEENANLQEYVEKETQEKKRLSRTNEELLWKLQTGDPTSPIKLSPTSPVYRGSSSGPSSPARVSTTPR
partner: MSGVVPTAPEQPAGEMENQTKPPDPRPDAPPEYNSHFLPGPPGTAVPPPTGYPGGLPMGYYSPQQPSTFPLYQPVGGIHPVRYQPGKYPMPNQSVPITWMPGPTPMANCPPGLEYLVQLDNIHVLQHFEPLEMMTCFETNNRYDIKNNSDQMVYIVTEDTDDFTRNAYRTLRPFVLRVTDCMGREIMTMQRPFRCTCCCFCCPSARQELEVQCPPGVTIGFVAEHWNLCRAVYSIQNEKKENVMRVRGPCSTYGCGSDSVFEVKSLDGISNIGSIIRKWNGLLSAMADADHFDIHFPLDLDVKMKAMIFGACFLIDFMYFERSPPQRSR
B3: Protein FAM9B (Homo sapiens), Q8IZU0 (parent)
chain: MAAWGKKHAGKDPVRDECEERNRFTETREEDVTDEHGEREPFAETDEHTGANTKKPEDTAEDLTAKRKRMKMDKTCSKTKNKSKHALRKKQLKRQKRDYIHSLKLLNVLEEYITDEQKEEEEEEGEEEELIRIFQEQQKKWQQYRSVRRERLKEMKLLRDQFVKALEDFEDLCDRVFSDEDSELDN
partner: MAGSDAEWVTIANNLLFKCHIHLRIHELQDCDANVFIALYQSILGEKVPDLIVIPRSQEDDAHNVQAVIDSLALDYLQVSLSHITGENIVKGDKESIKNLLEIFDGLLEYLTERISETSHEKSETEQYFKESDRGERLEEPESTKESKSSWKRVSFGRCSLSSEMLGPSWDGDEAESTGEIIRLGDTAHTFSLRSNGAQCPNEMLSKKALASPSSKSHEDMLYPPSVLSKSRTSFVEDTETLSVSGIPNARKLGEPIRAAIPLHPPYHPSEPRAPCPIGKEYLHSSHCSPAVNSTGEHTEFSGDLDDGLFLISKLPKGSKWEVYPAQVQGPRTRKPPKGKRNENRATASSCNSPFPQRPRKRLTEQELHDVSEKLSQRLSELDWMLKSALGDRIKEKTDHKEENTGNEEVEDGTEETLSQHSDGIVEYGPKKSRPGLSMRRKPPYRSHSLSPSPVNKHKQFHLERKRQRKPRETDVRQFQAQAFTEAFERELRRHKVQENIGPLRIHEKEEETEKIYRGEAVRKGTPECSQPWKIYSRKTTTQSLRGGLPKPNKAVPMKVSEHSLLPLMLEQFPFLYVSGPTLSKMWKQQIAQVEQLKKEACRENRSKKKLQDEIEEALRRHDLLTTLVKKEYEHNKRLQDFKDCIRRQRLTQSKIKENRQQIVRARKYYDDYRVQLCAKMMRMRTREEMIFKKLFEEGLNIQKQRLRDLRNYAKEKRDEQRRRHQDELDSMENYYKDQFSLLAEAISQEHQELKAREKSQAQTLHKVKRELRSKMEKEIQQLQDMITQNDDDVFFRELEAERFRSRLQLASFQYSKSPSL
B4: F-BAR domain only protein 1 (Homo sapiens), O14526 (parent)
chain: MSYFGEHFWGEKNHGFEVLYHSVKQGPISTKELADFIRERATIEETYSKAMAKLSKLASNGTPMGTFAPLWEVFRVSSDKLALCHLELTRKLQDLIKDVLRYGEEQLKTHKKCKEEVVSTLDAVQVLSGVSQLLPKSRENYLNRCMDQERLRRESTSQKEMDKAETKTKKAAESLRRSVEKYNSARADFEQKMLDSALRFQAMEETHLRHMKALLGSYAHSVEDTHVQIGQVHEEFKQNIENVSVEMLLRKFAESKGTGREKPGPLDFEAYSAAALQEAMKRLRGAKAFRLPGLSRREREPEPPAAVDFLEPDSGTCPEVDEEGFTVRPDVTQNSTAEPSRFSSSDSDFDDEEPRKFYVHIKPAPARAPACSPEAAAAQLRATAGSLILPPGPGGTMKRHSSRDAAGKPQRPRSAPRTSSCAERLQSEEQVSKNLFGPPLESAFDHEDFTGSSSLGFTSSPSPFSSSSPENVEDSGLDSPSHAAPGPSPDSWVPRPGTPQSPPSCRAPPPEARGIRAPPLPDSPQPLASSPGPWGLEALAGGDLMPAPADPTAREGLAAPPRRLRSRKVSCPLTRSNGDLSRSLSPSPLGSSAASTALERPSFLSQTGHGVSRGPSPVVLGSQDALPIATAFTEYVHAYFRGHSPSCLARVTGELTMTFPAGIVRVFSGTPPPPVLSFRLVHTTAIEHFQPNADLLFSDPSQSDPETKDFWLNMAALTEALQRQAEQNPTASYYNVVLLRYQFSRPGPQSVPLQLSAHWQCGATLTQVSVEYGYRPGATAVPTPLTNVQILLPVGEPVTNVRLQPAATWNLEEKRLTWRLPDVSEAGGSGRLSASWEPLSGPSTPSPVAAQFTSEGTTLSGVDLELVGSGYRMSLVKRRFATGMYLVSC
partner: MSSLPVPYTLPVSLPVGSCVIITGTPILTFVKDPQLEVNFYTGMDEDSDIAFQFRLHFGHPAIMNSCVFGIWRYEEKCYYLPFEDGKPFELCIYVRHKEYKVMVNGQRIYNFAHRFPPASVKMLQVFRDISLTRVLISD
B5: Notch homolog 2 N-terminal-like protein A (Homo sapiens), Q7Z3S9 (parent)
chain: MCVTYHNGTGYCKCPEGFLGEYCQHRDPCEKNRCQNGGTCVAQAMLGKATCRCASGFTGEDCQYSTSHPCFVSRPCLNGGTCHMLSRDTYECTCQVGFTGKECQWTDACLSHPCANGSTCTTVANQFSCKCLTGFTGQKCETDVNECDIPGHCQHGGTCLNLPGSYQCQCLQGFTGQYCDSLYVPCAPSPCVNGGTCRQTGDFTFECNCLPETVRRGTELWERDREVWNGKEHDEN
partner: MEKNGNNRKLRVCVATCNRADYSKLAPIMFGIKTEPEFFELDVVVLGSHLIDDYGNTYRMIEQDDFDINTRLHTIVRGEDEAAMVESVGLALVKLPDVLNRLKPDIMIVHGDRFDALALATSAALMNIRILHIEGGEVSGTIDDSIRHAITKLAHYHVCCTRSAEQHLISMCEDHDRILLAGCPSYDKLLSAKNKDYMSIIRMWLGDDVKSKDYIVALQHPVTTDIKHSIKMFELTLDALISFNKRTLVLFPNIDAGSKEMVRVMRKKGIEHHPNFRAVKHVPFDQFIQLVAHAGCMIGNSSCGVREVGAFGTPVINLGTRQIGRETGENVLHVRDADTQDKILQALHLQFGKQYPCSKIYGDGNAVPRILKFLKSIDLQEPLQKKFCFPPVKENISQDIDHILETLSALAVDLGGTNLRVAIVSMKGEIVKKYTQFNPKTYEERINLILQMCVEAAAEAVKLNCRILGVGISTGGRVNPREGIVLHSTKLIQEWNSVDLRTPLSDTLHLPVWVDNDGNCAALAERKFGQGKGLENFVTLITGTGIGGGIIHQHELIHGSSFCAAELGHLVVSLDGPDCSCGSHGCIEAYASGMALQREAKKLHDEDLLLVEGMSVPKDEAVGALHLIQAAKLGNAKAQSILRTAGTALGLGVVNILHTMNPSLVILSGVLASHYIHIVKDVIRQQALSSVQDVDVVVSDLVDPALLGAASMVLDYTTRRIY
B6: Notch homolog 2 N-terminal-like protein A (Homo sapiens), Q7Z3S9 (parent)
chain: B5 chain
partner: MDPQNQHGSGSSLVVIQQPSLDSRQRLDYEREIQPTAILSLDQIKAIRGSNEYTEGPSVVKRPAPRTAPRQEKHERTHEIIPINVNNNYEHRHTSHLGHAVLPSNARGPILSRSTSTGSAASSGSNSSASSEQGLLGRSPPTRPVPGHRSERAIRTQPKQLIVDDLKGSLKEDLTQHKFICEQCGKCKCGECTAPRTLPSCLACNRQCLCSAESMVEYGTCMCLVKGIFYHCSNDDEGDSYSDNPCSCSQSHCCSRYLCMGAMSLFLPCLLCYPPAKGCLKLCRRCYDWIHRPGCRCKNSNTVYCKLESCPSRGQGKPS
B7: Protein SSX3 (Homo sapiens), Q99909 (parent)
chain: MNGDDTFARRPTVGAQIPEKIQKAFDDIAKYFSKEEWEKMKVSEKIVYVYMKRKYEAMTKLGFKAILPSFMRNKRVTDFQGNDFDNDPNRGNQVQRPQMTFGRLQGIFPKIMPKKPAEEGNVSKEVPEASGPQNDGKQLCPPGKPTTSEKINMISGPKRGEHAWTHRLRERKQLVIYEEISDPEEDDE
B8: Copper homeostasis protein cutC homolog (Homo sapiens), Q9NTM9 (parent)
chain: MKRQGASSERKRARIPSGKAGAANGFLMEVCVDSVESAVNAERGGADRIELCSGLSEGGTTPSMGVLQVVKQSVQIPVFVMIRPRGGDFLYSDREIEVMKADIRLAKLYGADGLVFGALTEDGHIDKELCMSLMAICRPLPVTFHRAFDMVHDPMAALETLLTLGFERVLTSGCDSSALEGLPLIKRLIEQAKGRIVVMPGGGITDRNLQRILEGSGATEFHCSARSTRDSGMKFRNSSVAMGASLSCSEYSLKVTDVTKVRTLNAIAKNILV
partner: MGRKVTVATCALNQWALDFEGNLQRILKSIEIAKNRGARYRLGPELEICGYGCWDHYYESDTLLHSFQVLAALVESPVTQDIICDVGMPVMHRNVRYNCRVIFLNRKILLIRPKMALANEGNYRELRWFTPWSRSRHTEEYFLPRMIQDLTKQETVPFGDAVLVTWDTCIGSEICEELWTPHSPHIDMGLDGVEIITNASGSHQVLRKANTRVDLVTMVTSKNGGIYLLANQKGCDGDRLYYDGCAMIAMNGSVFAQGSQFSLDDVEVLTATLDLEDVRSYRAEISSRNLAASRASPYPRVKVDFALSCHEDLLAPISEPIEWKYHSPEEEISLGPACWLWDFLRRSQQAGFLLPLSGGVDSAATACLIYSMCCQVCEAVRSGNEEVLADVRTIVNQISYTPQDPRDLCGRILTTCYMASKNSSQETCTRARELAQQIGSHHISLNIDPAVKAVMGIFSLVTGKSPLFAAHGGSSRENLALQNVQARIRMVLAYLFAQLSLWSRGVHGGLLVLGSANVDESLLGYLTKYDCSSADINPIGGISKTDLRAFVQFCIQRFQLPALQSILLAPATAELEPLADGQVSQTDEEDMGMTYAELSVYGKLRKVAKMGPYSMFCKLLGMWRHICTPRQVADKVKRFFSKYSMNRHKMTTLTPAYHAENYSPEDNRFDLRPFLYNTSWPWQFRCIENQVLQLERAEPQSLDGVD

In one experiment the parent is B1. To be noted: with smip4_human SPMIP4, Q8N865.
Chain of smip4_human SPMIP4, Q8N865 (Q8N865 whole entry): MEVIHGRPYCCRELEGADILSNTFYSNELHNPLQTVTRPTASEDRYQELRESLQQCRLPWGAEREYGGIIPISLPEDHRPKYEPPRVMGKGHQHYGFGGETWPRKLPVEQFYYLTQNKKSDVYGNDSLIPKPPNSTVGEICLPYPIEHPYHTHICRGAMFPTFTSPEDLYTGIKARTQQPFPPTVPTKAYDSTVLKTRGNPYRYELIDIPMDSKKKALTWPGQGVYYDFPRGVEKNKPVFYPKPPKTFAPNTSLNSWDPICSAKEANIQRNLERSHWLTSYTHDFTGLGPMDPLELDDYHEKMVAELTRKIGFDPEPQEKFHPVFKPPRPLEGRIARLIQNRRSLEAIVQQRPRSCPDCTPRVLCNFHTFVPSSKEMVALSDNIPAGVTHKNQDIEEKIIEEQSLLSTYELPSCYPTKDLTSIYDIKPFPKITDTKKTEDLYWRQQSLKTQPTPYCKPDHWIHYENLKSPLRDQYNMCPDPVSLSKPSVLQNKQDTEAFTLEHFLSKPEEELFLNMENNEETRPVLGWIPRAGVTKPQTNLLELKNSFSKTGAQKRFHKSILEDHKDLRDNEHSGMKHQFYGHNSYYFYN
Turning to D484N, the “effect of a mutation on the interaction” value is “with no effect”.

Variants of B2 are the subject of the next experiment. The note with it: with pls4_human PLSCR4, Q9NRQ2.
Regarding A89V, the “effect of a mutation on the interaction” value is “with no effect”.

Variants of B3 are the subject of a further experiment. To be noted: with cep95_human CEP95, Q96GE4.
R23H: the “effect of a mutation on the interaction” value is recorded as “with no effect”.

The variants in the next experiment derive from B4. To be noted: with ppl13_human LGALS14, Q8TCE9.
In the case of E423G, the “effect of a mutation on the interaction” value was “with no effect”.

Another experiment covers variants of B5. The note with it: with glcne_human GNE.
Consider R74Q, for which the “effect of a mutation on the interaction” value is recorded as “with no effect”.

In the case of A115T, the “effect of a mutation on the interaction” value is reported as “with no effect”.

In the next experiment the parent is B6. The note with it: with spy1_human SPRY1, O43609.
Turning to A115T, the “effect of a mutation on the interaction” value is “with no effect”.

With R74Q, the “effect of a mutation on the interaction” value was “with no effect”.

A further experiment covers variants of B7. The note with it: with cep63_human CEP63, Q96MT8.
Chain of cep63_human CEP63, Q96MT8 (Q96MT8 whole entry): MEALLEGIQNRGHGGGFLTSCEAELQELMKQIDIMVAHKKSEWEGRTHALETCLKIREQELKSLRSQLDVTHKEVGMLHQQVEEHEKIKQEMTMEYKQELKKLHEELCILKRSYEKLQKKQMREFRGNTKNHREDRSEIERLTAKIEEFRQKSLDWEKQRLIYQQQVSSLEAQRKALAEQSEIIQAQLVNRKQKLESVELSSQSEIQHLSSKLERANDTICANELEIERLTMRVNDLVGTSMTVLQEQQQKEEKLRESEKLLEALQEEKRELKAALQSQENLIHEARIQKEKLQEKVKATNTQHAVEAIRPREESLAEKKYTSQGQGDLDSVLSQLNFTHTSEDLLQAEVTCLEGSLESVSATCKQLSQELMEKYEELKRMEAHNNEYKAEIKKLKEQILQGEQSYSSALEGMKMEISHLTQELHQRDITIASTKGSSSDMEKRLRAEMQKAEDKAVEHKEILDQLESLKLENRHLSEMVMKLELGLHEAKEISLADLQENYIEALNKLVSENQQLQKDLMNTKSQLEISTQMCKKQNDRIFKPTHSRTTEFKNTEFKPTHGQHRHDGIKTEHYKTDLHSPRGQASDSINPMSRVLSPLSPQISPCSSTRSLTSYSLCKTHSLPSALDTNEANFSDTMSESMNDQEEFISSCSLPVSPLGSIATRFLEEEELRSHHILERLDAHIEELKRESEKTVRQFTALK
In the case of R159S, the “effect of a mutation on the interaction” value is given as “with no effect”.

Consider T77A, for which the “effect of a mutation on the interaction” value was “with no effect”.

In another experiment the parent is B8. To be noted: with nade_human NADSYN1, Q6IA69.
For P77L, the “effect of a mutation on the interaction” value is given as “disrupting interaction strength”.
